Target: GII.4.2002 P domain (human norovirus GII.4 2002 (Farmington Hills))
Test: crystal structure

Question: “GII.4.2002 P domain (domain or fragment)” was tested. Which stoichiometry N did it give?
Answer: 2

Reference: paper PMC6591005
